# Assay results as given in publication PMC9454804.
# How the values were obtained:
# [1] = target: Vascular Endothelial Growth Factor Receptor 1 (VEGFR1) (mouse (endogenous in C57BL/6 and eNOS-KO skeletal muscle)) (UniProt P35969)
# [2] = target: Vascular Endothelial Growth Factor Receptor 1 (VEGFR1) (mouse (endogenous in C57BL/6 and eNOS-KO skeletal muscle)) (UniProt P35969); remark: listed apart in the source
# [3] = target: Vascular Endothelial Growth Factor Receptor 1 (VEGFR1) (mouse (endogenous in C57BL/6 and eNOS-KO skeletal muscle)) (UniProt P35969); remark: listed apart in the source
# UniProt P35969, sequence (P35969 23-1333 S1181G): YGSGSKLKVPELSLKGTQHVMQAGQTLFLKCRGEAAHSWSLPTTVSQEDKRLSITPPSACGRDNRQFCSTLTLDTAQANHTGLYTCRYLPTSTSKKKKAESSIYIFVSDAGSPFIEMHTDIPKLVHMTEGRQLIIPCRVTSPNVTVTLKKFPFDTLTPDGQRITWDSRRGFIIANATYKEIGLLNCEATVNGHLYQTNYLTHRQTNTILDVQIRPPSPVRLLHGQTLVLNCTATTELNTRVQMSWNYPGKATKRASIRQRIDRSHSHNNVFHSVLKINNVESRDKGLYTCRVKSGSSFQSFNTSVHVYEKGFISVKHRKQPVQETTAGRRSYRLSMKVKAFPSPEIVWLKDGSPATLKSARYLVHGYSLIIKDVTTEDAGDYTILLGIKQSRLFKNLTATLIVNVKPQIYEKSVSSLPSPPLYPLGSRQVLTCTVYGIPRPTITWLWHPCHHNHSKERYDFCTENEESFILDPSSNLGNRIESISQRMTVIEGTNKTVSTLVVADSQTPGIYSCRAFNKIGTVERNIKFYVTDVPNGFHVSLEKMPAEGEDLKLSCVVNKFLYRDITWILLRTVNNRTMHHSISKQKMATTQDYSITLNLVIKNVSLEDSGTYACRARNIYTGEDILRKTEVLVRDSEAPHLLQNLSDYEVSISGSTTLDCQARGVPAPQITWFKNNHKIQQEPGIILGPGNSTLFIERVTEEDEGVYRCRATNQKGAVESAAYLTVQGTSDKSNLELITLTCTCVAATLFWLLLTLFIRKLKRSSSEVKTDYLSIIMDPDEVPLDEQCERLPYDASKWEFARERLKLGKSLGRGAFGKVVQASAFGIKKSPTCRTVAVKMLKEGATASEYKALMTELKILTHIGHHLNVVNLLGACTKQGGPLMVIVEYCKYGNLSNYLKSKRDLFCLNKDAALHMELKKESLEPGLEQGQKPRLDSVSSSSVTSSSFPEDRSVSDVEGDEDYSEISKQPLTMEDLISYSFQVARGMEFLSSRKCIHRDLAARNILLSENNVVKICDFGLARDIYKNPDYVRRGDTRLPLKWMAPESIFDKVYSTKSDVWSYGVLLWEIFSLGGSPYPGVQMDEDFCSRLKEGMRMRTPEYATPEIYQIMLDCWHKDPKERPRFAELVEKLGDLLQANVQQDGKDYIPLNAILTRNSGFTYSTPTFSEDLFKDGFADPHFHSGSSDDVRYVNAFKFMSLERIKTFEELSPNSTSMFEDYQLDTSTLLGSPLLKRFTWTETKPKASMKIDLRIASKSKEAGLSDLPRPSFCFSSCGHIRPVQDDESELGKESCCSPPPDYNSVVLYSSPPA
substance,measurement,setting,value
anti-angiogenic VEGF-A isoform VEGF165b (ligand),"pSTAT3 activation, eNOS-KO ischemic muscle treated with VEGF165b-Ab vs. IgG",[1],1.4 fold
same,"pVEGFR1(Y1333) activation in VEGFR1 pull-down fractions, eNOS-KO ischemic muscle treated with VEGF165b-Ab vs. IgG",[1],1.3 fold
same,"pSTAT3 activation, HFD-ischemic muscle treated with VEGF165b-Ab vs. IgG at day 3 post-HLI",[2],1.5 fold
same,"pVEGFR1(Y1333) activation, HFD-ischemic muscle treated with VEGF165b-Ab vs. IgG at day 3 post-HLI",[2],1.5 fold
same,"pVEGFR1(Y1333) activation in VEGFR1 pull-down fractions, non-ischemic HFD vs. non-ischemic normal chow muscle",[3],1.5 fold
